Source: the Human Domainome abundance scans (Beltran et al. 2025)

B1: POU domain, class 4, transcription factor 3, residues 185 to 256; numbered along this chain, Q15319 (parent)
chain: RELEAFAERFKQRRIKLGVTQADVGAALANLKIPGVGSLSQSTICRFESLTLSHNNMIALKPVLQAWLEEAE

Variants of: B1
Experiment: abundance fitness (aPCA) (normalised: wild type 0, dead -1); higher = more abundant; growth selection in yeast, the domain comes from the species named
Settings: Homo sapiens

Abundance fitness, by site and new letter:
T43: C -0.333, N -0.746, G -0.65, E -0.235, S -0.2, K -0.153, P -0.836, V -0.031, L -0.012, I -0.089, M -0.053, D -0.29, W -0.382, A -0.148
L52: M -0.55, P -0.984
M57: A -0.173, G -0.634, T -0.174, S -0.156, R -0.524, L -0.045, Q -0.359, V -0.259
G35: F -0.231, I -0.569, K -0.291, P -0.285, Y -0.26, S -0.193, M -0.099, N -0.121, H -0.038, Q -0.076
I58: Q -0.055, L 0.094, D 0.215, E 0.071, A -0.262, P -1.06, N -0.049, M 0.153, F 0.078, T -0.044, H -0.033, K -0.058, S -0.034, Y -0.123
G37: E 0.038, R -0.063, H 0.011, A -0.127, D -0.093, Q 0.003, L -0.172, W -0.669, S -0.001, K -0.018, Y 0.024, M -0.153, P -0.055, V -0.039
P34: T -0.058, C -0.137, M -0.141, K -0.433, I -0.419, A 0.029, R -0.353, G -0.313, Q -0.458, V -0.271, W -0.571, F -0.474, S -0.124, L -0.386, Y -0.379
I44: V 0.08
C45: S -0.042, P -0.25, N -0.007, H 0.053, K 0.109, I 0.104, T 0.012, L -0.06, W -0.234, M -0.048, Y -0.01, Q 0.003, F -0.001
L50: K -0.012, S 0.041, Q 0.124, E -0.154, T -0.101, D -0.139, A 0.068, W -0.717, G 0.043, R 0.053, P -1.02
V63: I 0.055, K -0.35, A -0.135, D -0.585, H 0.019, F -0.181, G -0.545
S40: P -0.154, N -0.183, L -0.488, F -0.468, R -0.175, I -0.664, Q -0.287, Y -0.422, D 0.037, W -0.42, M -0.29, V -0.354, H -0.013, A -0.222, C -0.066
K32: H -0.113, N 0.004, D -0.076, S -0.031, T -0.088, P -0.158, E 0.034, Q -0.175, Y -0.12, M -0.048, W -0.162, L -0.146, I -0.049, G -0.169, R -0.039, A -0.056, F -0.174, V -0.009
V36: T -0.3, Y -0.121, G -0.242, P -0.398, A -0.089, N -0.234, W -0.091, H -0.072, S -0.077, E -0.055, I 0.117, L -0.011, M 0.044, F -0.043, Q -0.261, R -0.332
H54: P 0.102, Y -0.027
N55: S -0.061, Y -0.161
L60: G -0.638, R -0.845, K -0.859, A -0.289, Q -0.376
